Source: the DeepSol protein solubility set

Assay: soluble on expression in E. coli; label from the status in PepcDB or PDB records

Sequence | soluble on expression in E. coli
MLIPAQENNVSLTATPSRIGQIMKYGFPGLDHVRSHSDYVLSYDRRNRVPHWVFEHLTAESVAKNDAVDRSKCDFKQDESIHPFFRSQNTDYRRSGYDRGHMAAAGNHRLHQKHCDETFYLSNMAPQVGQGFNRDAWNTLEAHVRRLTKTYSNVYVCTGPLYLPHKEDDGKSYVKYEVIGANTVAVPTHFYKVIVGESADHKLHMESYVMPNQVISNDTPISVFQVPPESVERSAGLLFFDQINRKQLTTINGKKVAAALEHHHHHH | soluble
MLIRQVTMEDLEDIIRIENDNFSAEEAATSQALKERIEVIADTFLVAEQDGQIAGYVEGPVINSRYLTDDLFHKVKPNQEKSGYIAVTSLSVDKAFQKQGVGTTLLAALKDLTVAQNRLGIHLTCHDYLISYYEMNGFSNEGLSESTHGGTVWYNMIWENPKI | not soluble
MLIRSETPADQRAIFDVTQAAFRGHPHSEQTEAYIVQALRAAGALTLSLVAELDARVVGHAAFSPVQISDGSPSWFGLGPVSVDPAHQGRGIGTALIEHGLARLQARGAAGCVLVGEPAYYGRFGFRPEPGLVLPDMPPTHFLALTFGAPARGTVTYHPGFAARDA | not soluble
MLISKHEERVKSILSARMENGNLRSRENTQVEFKQSFNKGNIAIYAKTMAAFSNNSGGYIIFGIKDSPRSIIGLQNSNFENIQQEDLTDSINNLFSPSINELGSFILKEKEINSNGDVIIVQKIIGIYTEESNIKPVIAQKNNSSEKIVNGDIFYRYRARTEKIKYAEMEQIINCRMKQERDSLFKVFEFIRNNGATNLGIVDYNNGKLSTPYGVDVVLEKNLIAKLLKKAKFIKEGSFSENEGIPVIKVTGNINLAEEVPVPLENLDETYPYIQKQLAEKLNITPQKLYALIYFKMKESKKYHLEITTSKTNKTHKFSKFALLFLKEKIIELDENKNELEHHHHHH | not soluble
MLISKVIKKQFAQETIENVHIAKGTAMFQGVRLTVRCFVIDGVLIDTGAKSMENEFTSFFQQQDIDQVVITHFHEDHTGCAAFLQRKMGLPIYMNELMIHYCQQKADYPLYRKVFWGKRDPFTAKPIGATFSSRSATWDVIPTPGHSIDHVAFLNRETGQLFSGDLYCQEKTKVILREENIPAIITSLQHVLTYDFGDVFCAHAGYLPNGREALQRKLDYLLELQGTIIDLYEKGTPPKQIQALLFPKKYPIVFFSGGEWDSLHIIRSVIQEYETKQAG | not soluble
MLITHLIDSLSDRAVITPLTPTSVIIYDKNELKVYVGFTNNRNSLEYTKEVVLLLSTEIPKKAEIREIIVSKNGDYVILEGPRSLFVVRIGAEILVAKPDRLPSECFCECYPLHDSLLLQNISLSVVKVRLLPEKCDEKTFVTAVLFSDNCIRFYNLQKKFDSLLLAVDFRNHLHQVHDENVANNTFGLQKALVSFDLIPPKPNTSHFSIISIDSDCDFYTSFVHFSCFKEGYAPRIHRIEPVDGLPCDPLDLRYIQTTNPRICSVFVLVSGGGVLSHLVVFPNEFGEFRFLVKDQLRLPSSNGDPRIVQNQIRSLKVSRYEIATSSSLFSVNIFPWFEALTSISPTSTLEKETRVSELVDAVIPSDELSNTTKWTGARALRAVSVQLTQSLATEEEELLPESENIMHLVILENKDGQPAHLFNISTFDNIWSTENKTSFGRDSVSQPPMKSTGSLEQQLAALKPLAACVISEKVSCEEAIDAAMKFFDAVDERLKKHCEISKLFVERCLAVSSSAQALDEKQQSVDQRLIEETNTVEELKIRMHETKERMEGARKGINVLFHRVDENVPLSDNEIRIFERLKEHQKMLSDMTKLVPKMTLDSNEIHRMANIVLKKRGTGEEQNRFAAVEKNATEIESLEARENKLNTGISELSI | not soluble
MLKFNEEQQIKDIRGALALRSDVEKVVDQVWTKGFDAVYYIGIGGTYASAMQAVTYANGKSNLPIYVQHAAEYYTTGNKRLTEKSFVILSSVTGTTQEVVQAVQEIKKVGATLFGFIDAKDSLLADLCDYVVTYPAPGTEQIKFFMVADRLMQKNNEFTDYENYYQELEEYLPTGLAEAEKSADAFGLAFAEKHRHDSIHYFIGAGNQWGAVYSYAMCYWEEQSWLRSKSIHAAEFLHGTLEIVDETTPVTLFIGEDEQRPLAERVAKLLPKICANYTIIDSKAYELPGISEKYRGRVVSFLLMHAVTQRIDAHVEKLNCHPLEIRRYYRQFDY | not soluble
MLKLPPLSLYIHIPWCVQKCPYCDFNSHALKGDVPHQEYVDHLLADLDADLPLAGGRALHSIFIGGGTPSLLSAEAMQALLDGVRARIPLTPDAEITMEANPGTVEADRFSGYQRAGINRISIGVQSFDPQKLTRLGRIHGPEEAKRAAQLATGLKLRSFNLDLMHGLPDQSLDEALDDLRQAIALNPPHLSWYQLTIEPNTLFSSRPPTLPDDDALWDIYEQGHALLSAAGYEQYETSAYAKPGYQCQHNLNYWRFGDYLGIGCGAHGKLTFSDGHILRTVKVRHPRGYMQGTYMDKQHDVANDDRPFEFFMNRFRLLEAAPRADFTAYTGLEEHSIRPQLDQALAQGYLTETATHWQITEHGKLFLNSLLELFLAEELEHHHHHH | not soluble
MLKPLLAIFMISSALSIPLNRSDFLENDHVELMPLEKDGELNDKFRQEMIFSHNLDPSDSKQLSESIKEMFKKTDVNDDGFLTAGELKQQIRKNMEEHLEKSKNDSEIFFDIVDTNKDGSIVWEEFEPHFSKMHEKDHSDSELMDVHTEDPHRVDDEKRMFNRSDITRDGRLDRMEWHIFLHPEYSAQGLVEIVNDLMGVYDKNNDEVVSQDDFVNGIPGTVDELNPEFENMEKLEKERRLREFNEEIDENSDGKATFRELYDYVDPQNFRLASKEVNDIMMLTDANNDEKLSLEELLERDWLLARSSLLSARSSLHDEM | not soluble
MLKSELRKKVLHKRINLSEEERRRLSEKVISNLKSLPEFKKSKKVALYCPIKGEVDLTPLFPEVLKEKELILPKVEGNEISLYRVHSPACLGVGAFGIMEPVEGERVNPEDVDFIAVPGVAFDLEGYRLGFGKGYYDRLLKRVKGLKVGVAYSFQVFERLPRDAWDIPVDVLVTEKNVRRLRDGRSLEHHHHHH | soluble
MLKSSASAPAKAILFGEHAVVYSKPAIAAAIDRRVTVTVSESSSTHVTIPSLGIRHSSERPSGGILDYIGRCLELYHDASPLDIRVEMEIPAGSGLGSSAALTVALIGPLDRYHGRDHGPGETAARAHRVEVDVQGAASPLDTAISTYGGLVYLDSQRRVRQFEADLGDLVIAHLDYSGETARMVAGVAERFRRFPDIMGRIMDTVESITNTAYRELLRNNTEPLGELMNLNQGLLDSMGVSTRELSMMVYEARNAGAAGSKITGAGGGGSIIAHCPGCVDDVVTALNRNWKAMRAEFSVKGLI | soluble
MLLAGLTSCQQKGYTITGTVDSTLNLDGNMVYIQLSQGNNLDSTTIRNGAFTFTGEHIDTAKLAYIVTASPEHNVVPIIFILEDGKISAKIGEYAAKGTPLNEENFKYSAKINELENSFKLKMEEIQADTARAAEETQAMLEKEYTAMLGEKSKITTELYQSHTNDALGARLLQNILYGEGSDSDVIAEARKKAGPIVLAHPNIVHLLAMIDNLADTQPGKMAKNFAGTDAEGNEVELFKYVGQGNYAVVDFWASWCGPCRREIPYIAEANAKFAEKGLQVVGIVVWDKMEDHLKAKEALNVVWPQIFDAKNVATDMYGIQGIPQVILFGPDGTIIERDLRGEKLIEKLSEIYNSNKK | not soluble
MLLDVQHGQFGFIKGGIIAVIWFSLSRTINCGQLNLECFEFWLPTSQLLVLDVCLFDAFALEHHHHHH | not soluble
MLLPTPEDLKKRRNELGLTQSDLAKRAGVSQPLIARIESGDVDPRLSTVRKILDAFEEAEKERQILIRDLMHSPVLHVSPEDSVEEVVNLMHVHGFSQIPVLDRGIPVGSVSEDMIVRLMGESKKKPISQLKVSGIMGESFPTVSPGISISVVSHILEGNPAVLVVEKGTVVGVVTKHDVMKLLQGQ | not soluble
MLLQLAEDRRRLKGVQSTVKKAEIKVELLPKYAAWAEGVLAAGGAQQDDVLMYVMLWRIDAGDYAGALEIGRHALRHGWVMPLGNRNVQTVLAEEMADAAQSAMLATTGFDVDLLLQTLELTDGLDMPDQSRARLHKAIGAVLSESNPASALNHLNHALQLDPRCGVKKDKQQLERRLRNDSR | not soluble
MLLQTLEERLATLRQRCAPLAQHATLSARFDRHLFRTRSTLLQGYLEEAGANLVALRQAVKHEQLPQVAWLAEHLASQLEAISRETAAWSLRQWDAAAPGLGRWQRRRIQHQEFERRLLAMTQERKIRLAQATGLVEQQTLQKEVEIYEGRLARCRHALEKIENVLARLTR | not soluble
MLNIGYPFWPSMRFKPRPFITPVRFKCLFCLDCCRGRHVYLTVSDIKRLVGSGHDPQKFLTFSIEGGNIRFVLSVREWDLGCIFHDPGTGKCTIHPIRPLICRIYPFMVSKRPLGVEGEEPVQYKGRMLWLYYDESCPGINSQEGEVITPEEIAELGVKFEEELSRTTFEDVIKVLLEHHHHHH | soluble
MLNLRGVEIRKGALDGPAQARLIEALRPVLKAAPLFTPTMPNGKPLSVRMTSAGSLGWVTDKGGYRYQPTHPKGMAWPAIPPEVLDLWHGVTGQDRAPDCCLINYYGEGARMGLHQDRDEADLTWPVVSLSLGDDALFRIGNTSRGGKTESVWLNSGDVVVMGGPARLIYHGIDRIRFGSSRLLPKGGRLNLTLRVAGLEHHHHHH | not soluble
MLNNDVLRSLRYLLDLPDAHLAELAARFGEQVEADLLEAYLKKEDEDGFQACPDRYLARCLDGLIIQRRGRDESRPLPPLELPLSNNMILKKLRVAFELKEEDLHAILDSVDFPVSKPELSALFRKPGHSNYRTCGDQLLRNFLKGLTLRVRG | not soluble
MLNVVKRDGRQVVFDSNKIFNAIKGAADEIGYDIKQSDILELTQKVIGRVEDLKIREISVEEVQNLVEEVLLENGNKEIGMAYCTYRKERTKVRE | not soluble
MLPFDPSTRYDRQVRLWGEEGQASIGSTSACVLGSDSLATEILKSLVLAGVQSFYVVDDAKVEQADIGQNFFLHADDIGRSRAEATLEKLTELNPSVSGSASSQPPTALAMEDVEKLTTFSVVVAANQNEEIDTTFAKVLYNIRVPFICIKTFGLIGTIRICIKEHTIANSHEENPRPDLRLDAPFSKLIEMINETNLDEMTLEQLRHTPYILLHFKALEVFRKQRNDPEAFPSTTAERKELQAILMSFRRSSEESGTKDSENFDEAKAAVIRAFQRTTIGSSVKSILSSPQCSTSTRPFWLICEALRRFVTENNNLLPLRGTLPDMTSDSSRYTRLATLFHEKALSDAQEVLRLTREVEKERGVGDVISDDVCYRFCKNADRIRVQYGDVLDYNEETKAIVEKIRESNIDEETRNQKVDEATWMLLMRAVGRFQKEKGRYPGTNGVPVSIDAQDLKKRVEVLIREALKDEQDFTSISNKVTDTAIAEICRFGAAELHVISSYVGGIAAQEIIKLATNQYVPIDNTFIFDGHTQESATFKF | not soluble
MLPINRQQHILKWLKEEGSLRISDISARFGVSEMTVYRDVNQLVQSNQVIKTAGGITLPVRTPQTDHMCSYCLKPVNQAHSVQLITVNQDIEQLCCAHCAFLRYADKTEEVSHLICRDFLLQTTVSAGSAYFVVNAELNLHCCQPQAIPFATLDHAERFQKGFGGAVCTFDQALEDMLQDRKKRCTCTKK | soluble
MLQCYNCPNPTADCKTAVNCSSDFDACLITKAGLQVYNKCWKFEHCNFNDVTTRLRENELTYYCCKKDLCNFNEQLENC | soluble
